Assay results as given in article PMC10976963.

Target: actin of the cytoskeleton of living U2OS cells (human (endogenous in U2OS)) (UniProt P60709)
Assay: FRAP; fluorescence recovery after photobleaching at lamellipodia of living U2OS cells expressing mEGFP-DARPins or mCherry-LifeAct, 37 °C, single-exponential fit

- FRAP half-recovery time (τ1/2) at lamellipodia: 0.47 s
Substance: mCherry-LifeAct (peptide)
